In patent EP4342487A2, “PHARMACEUTICAL COMPOSITION COMPRISING GIP DERIVATIVE OR LONG-ACTING CONJUGATE THEREOF FOR PREVENTING OR TREATING PULMONARY DISEASE” (Hanmi Pharm. Co., Ltd., priority 2021, dated 2022):
Where no end group is shown, it is not given here. [ ]: non-standard residue; d: D form. Aib = CC(C)(N)C(=O)O

T1: human GIP receptor (human, UniProt P48546 22-466)
T1 sequence (looked up): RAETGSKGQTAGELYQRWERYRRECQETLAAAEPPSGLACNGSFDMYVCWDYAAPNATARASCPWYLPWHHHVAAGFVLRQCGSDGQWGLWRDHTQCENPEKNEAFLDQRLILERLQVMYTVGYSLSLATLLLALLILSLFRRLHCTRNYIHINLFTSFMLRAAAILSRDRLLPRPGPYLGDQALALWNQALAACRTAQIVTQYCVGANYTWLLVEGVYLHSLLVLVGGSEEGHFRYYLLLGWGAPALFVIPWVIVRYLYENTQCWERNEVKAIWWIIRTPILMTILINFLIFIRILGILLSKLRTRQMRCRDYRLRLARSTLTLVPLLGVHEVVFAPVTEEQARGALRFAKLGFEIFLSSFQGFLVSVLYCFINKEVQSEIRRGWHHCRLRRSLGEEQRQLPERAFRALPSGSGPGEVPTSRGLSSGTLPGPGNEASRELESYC


What was measured:
THP-1 cell line [1] = assay: Anti-inflammatory effect in LPS-induced THP-1 cells, mRNA level (qPCR); assay type: cell-based, human; details: THP-1, 1 µg/mL LPS; native GIP 10 µM, long-acting GIP derivative 1 or 10 µM; FIG. 2A
Method: To confirm the anti-inflammatory effect of the long-acting GIP derivative on COPD in vitro, a human monocyte/macrophage cell line, THP-1, was used. Macrophages are known to induce the progression of inflammation by secreting cytokines and chemokines at the initial stage of infection and mobilizing other immune cells.
The THP-1 cell line was cultured in a RPMI 1640 medium supplemented with 10% fetal bovine serum (FBS), 100 µg/mL streptomycin, 100 U/mL penicillin, and 0.05 mM β-mercaptoethanol, at a temperature of 37 °C in 5% carbon dioxide conditions. An inflammatory response was induced by adding 1 µg/mL of lipopolysaccharide (LPS) to the cell line, and the effect on the inflammatory response by LPS when treated with native GIP and long-acting GIP derivatives was confirmed at the mRNA level. The native GIP was added at the concentration 10 µM, and the long-acting GIP derivative was diluted at a concentration of 1 or 10 µM and added. As the long-acting GIP derivative, the long-acting GIP conjugate (SEQ ID NO: 17) prepared in Example 3 was used.
RNA was isolated from the THP-1 cell line after the treatment was completed by using the RNeasy Mini Kit (Qiagen, US), and cDNA was synthesized using the iScript™ cDNA Synthesis Kit (Bio-rad, US). […]

THP-1 cell line [2] = assay: Inflammation-related cytokines in the medium of PMA and LPS-induced THP-1 cells (ELISA); assay type: cell-based, human; details: THP-1, 150 nm PMA and 0.1 µg/mL LPS, native GIP 1 µM, long-acting GIP derivative 0.1 µM or 1 µM, FIG. 2B
Method: Additionally, in order to measure the concentrations of the inflammation-related cytokines IL-6, IL-12/23 p40, IL-1β, and TNF-α in the medium of the THP-1 cell line, 150 nm of phorbol 12-myristate 13-acetate (PMA) and 0.1 µg/mL of LPS were added thereto to induce an inflammatory reaction, and the cells were treated with the native GIP and the long-acting GIP derivative: the native GIP was used at a concentration of 1 µM and the long-acting GIP derivative was diluted to a concentration of 0.1 µM or 1 µM. As the medium, Human IL-6 ELISA Kit (Abcam, US), Human IL-12/23 p40 ELISA Kit (Abcam, US), Human IL-1beta ELISA Kit (Abcam, US), and Human TNF alpha ELISA Kit (Abcam, US)were used for quantification.

A549 cell line = assay: Inflammation and EMT in A549 cells treated with TGF-β1 and LPS (qPCR); assay type: cell-based, human; details: native GIP 10 µM, long-acting GIP derivative 1 or 10 µM
Method: The A549 cell line, a human alveolar epithelial cell, was used to confirm the inflammatory and fibrosis amelioration effect of long-acting GIP derivatives on COPD in vitro. The purpose of this experiment was to determine the effect of alveolar epithelial cells on epithelial mesenchymal transition (EMT), which is known to be important in the pulmonary fibrosis process.
The A549 cell line was cultured in a F-12K medium supplemented with 10% fetal bovine serum (FBS), 100 µg/mL streptomycin, and 100 U/mL penicillin at a temperature of 37 °C and in 5% carbon dioxide conditions. Cell lines were sequentially treated with TGF-β1 and LPS to induce inflammatory responses and EMT. The native GIP was added at the concentration 10 µM, and the long-acting GIP derivative was diluted at a concentration of 1 or 10 µM and added. As the long-acting GIP derivative, the long-acting GIP conjugate (SEQ ID NO: 17) prepared in Example 3 was used.
RNA was isolated from the A549 cell line after the treatment was completed by using the RNeasy Mini Kit (Qiagen, US), and cDNA was synthesized using the iScript™ cDNA Synthesis Kit (Bio-rad, US). Regarding the synthesized cDNA, the expression level of inflammation and EMT-related genes was confirmed by using the QuantStudio 6 Flex Real-Time PCR System (Applied Biosystems, US). Delta Delta Ct method was used, and beta-actin was used as a housekeeping gene. […]

human GIP receptor = target: T1, human GIP receptor; assay: cell-based or functional assay

| Molecule | In vitro activity (%) of GIP derivatives compared to human native GIP in human GIP receptors (EC50 from accumulated cAMP, CHO cells expressing the human GIP receptor) (human GIP receptor) | other results |
| --- | --- | --- |
| native GIP: hormone composed of 42 amino acids secreted from the K cells of the small intestine (YAEGTFISDYSIAMDKIHQQDFVNWLLAQKGKKNDWKHNITQ; Gastric inhibitory polypeptide; UniProt P09681 52-93, looked up) | – | relative expression levels of inflammation-related genes IL-6, IL-12, IL-1β, and TNF-α (THP-1 cell line [1]): decreased; concentrations of the inflammation-related cytokines IL-6, IL-12/23 p40, IL-1β, and TNF-α in the medium (THP-1 cell line [2]): decreased; relative expression levels of inflammation-related genes IL-6, IL-12, and TNF-α (A549 cell line; FIG. 3A): significantly decreased; relative expression levels of EMT marker fibronectin, Col1α1, and Col3α1 (A549 cell line; FIG. 3B): decreased |
| Y[Aib]EGTFISDYSIYLDAIAQQDFVNWLLAGGPSSGAPPPSC (not fully specified) [GIP derivative of SEQ ID NO: 6] | 17.4% | – |
| Y[Aib]EGTFISDYSIYLDAQAA[Aib]DFVNWLLAGGPSSGAPPPSC (not fully specified) [GIP derivative of SEQ ID NO: 8] | 1.9% | – |
| Y[Aib]EGTFISDYSIYLDKQAA[Aib]EFVQWLI[Aib]GGPSSGAPPPSC (not fully specified) [GIP derivative of SEQ ID NO: 25] | 78.3% | – |
| Y[Aib]EGTFISDYSIQMDAIAQQDFVNWLLAGGPSSGAPPPSC (not fully specified) [GIP derivative of SEQ ID NO: 5] | 12.1% | – |
| Y[Aib]EGTFISDYSI[Aib]LDKQAA[Aib]EFVNWLL[Aib]GHPSSGAPPPSC (not fully specified) [GIP derivative of SEQ ID NO: 24] | 183% | – |
| Y[Aib]EGTFISDYSIYLDKQAA[Aib]EFVQWLIAGHPSSGAPPPC (not fully specified) [GIP derivative of SEQ ID NO: 26] | 66.7% | – |
| Y[Aib]EGTFISDYSIYLDAQAAKDFVNWLLAGGPSSGAPPPSC (not fully specified) [GIP derivative of SEQ ID NO: 9] | 2% | – |
| Y[Aib]EGTFISDYSIYLDKQAQKEFVNWLL[Aib]GGPSSGAPPPSC (not fully specified) [GIP derivative of SEQ ID NO: 23] | 87.6% | – |
| Y[Aib]EGTFISDYSI[Aib]MDAIAQQDFVNWLLAGGPSSGAPPPSC (not fully specified) [GIP derivative of SEQ ID NO: 3] | 15.6% | – |
| Y[Aib]EGTFISDYSIYLDAQAQQDFVNWLLAGGPSSGAPPPSC (not fully specified) [GIP derivative of SEQ ID NO: 7] | 19.6% | – |
| Y[Aib]EGTFISDYSIYMDAIAQQDFVNWLLAGGPSSGAPPPSC (not fully specified) [GIP derivative of SEQ ID NO: 4] | 10.5% | – |
| Y[Aib]EGTFISDYSIYLDKQAA[Aib]EFVNWLLAGHPSSGAPPPSC (not fully specified) [GIP derivative of SEQ ID NO: 22] | 71.6% | – |
